Measured values from article PMC5103072, “Cryo-EM study of start codon selection during archaeal translation initiation” (Nature Communications, 2016).

Molecular target: T1, Pa-aIF2γ (γ-subunit of archaeal translation initiation factor 2 from Pyrococcus abyssi), native version (Pyrococcus abyssi, UniProt Q9V1G0 1-411)
T1 construct: aIF2 γ-subunit from Pyrococcus abyssi, native (untagged) version; Stood in the assay as part of the aIF2 heterotrimer with GDPNP and Met-tRNA; The deposited models use the S. solfataricus ternary complex (PDB 3V11) as the fitted component; source: cells overproducing the subunit, mixed with cells overproducing α and β; heterotrimer purified (heating at 80 °C, Q-Hiload, S-Hiload, Superdex 200)
T1 sequence (looked up): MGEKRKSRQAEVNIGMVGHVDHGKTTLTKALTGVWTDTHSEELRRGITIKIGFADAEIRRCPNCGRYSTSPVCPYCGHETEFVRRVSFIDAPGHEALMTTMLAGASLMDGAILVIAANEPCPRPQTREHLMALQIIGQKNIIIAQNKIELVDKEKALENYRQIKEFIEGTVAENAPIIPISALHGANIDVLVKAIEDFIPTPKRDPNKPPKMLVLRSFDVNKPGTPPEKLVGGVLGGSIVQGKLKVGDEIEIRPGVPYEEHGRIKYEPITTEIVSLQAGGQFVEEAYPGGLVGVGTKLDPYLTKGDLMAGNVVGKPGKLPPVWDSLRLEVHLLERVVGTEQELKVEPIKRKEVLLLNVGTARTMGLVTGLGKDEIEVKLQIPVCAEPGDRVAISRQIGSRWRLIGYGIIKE
Test: cryo-EM structure; full 30S initiation complex (Pa-30S, synthetic mRNA, Met-tRNAfMet A1-U72, GDPNP, Pa-aIF1, Pa-aIF1A, Pa-aIF2) assembled at 51 °C in IC buffer (10 mM Hepes pH 7.5, 100 mM NH4Cl, 10 mM magnesium acetate, 3 mM 2-mercaptoethanol), purified on Talon; class IC0-P_(REMOTE), tRNA out of the P site, 5.34 Å overall resolution; known structures of homologous components fitted
Conditions: both partners purified

binding result: binds
B1: Pa-aIF2α (α-subunit of archaeal translation initiation factor 2 from Pyrococcus abyssi), N-terminally tagged version (natural protein, UniProt Q9V0E4 1-275, looked up)
chain: MPRRAREYPEEGEFVVATVKRIHNYGAFLELDEYPGKEAFMHISEVASTWVRNIRDYLKEGQKVVAKVIRVDPRKGHIDLSLRRVTQQQRKAKLQEFKRAQKAENLLKLAAEKLGKDFETAWREVWVPLEEEWGEVYAAFEDAAKDGIDVLKGHVPDEWLPVLKEIIDNYVEVPTVTIDAEFEITVPKPNGVEIIKEALIRARDRANKEKDVEVKFTYLGAPRYRIDITAPDYYKAEEVLESIAEEILRVIKEAGGEATLLRKEKRIKKVKKRKK
notes: aIF2 α-subunit from Pyrococcus abyssi, N-terminally tagged version; domains 1 and 2 (aIF2α-D12) and domain 3 (aIF2α-D3); the complex was purified on a Talon column by it; Stood in the assay as part of the aIF2 heterotrimer; source: cells overproducing the subunit, mixed with cells overproducing β and γ; heterotrimer purified (heating at 80 °C, Q-Hiload, S-Hiload, Superdex 200)
